Measured values: patent US20020120098A1, “Enhanced stimulation of erythropoiesis” (priority 1996, published 2002)
Where two headings read alike, the source gives them in different places. One block for each molecule: values may come before it.

Assays:
CFU-GM = experiment: Colony formation assay (CFA), cord blood LDMNC: CFU-GM colonies; type: cell-based, human
Experimental: (§1) This technique, referred to as the colony formation assay (CFA), is the most widely used biological assay to identify and enumerate erythroid progenitors present in hematopoietic tissue such as blood and bone marrow. Cell populations containing erythroid progenitors are plated in semi-solid suspensions of methyl cellulose, agar, low melting agarose or related substances in nutrient culture medium containing 1-3 U/ml Epo and 10 ng/ml IL-3 to specifically stimulate erythroid progenitors. Plates are incubated at 37° C. for 14 days during which time the erythroid progenitors form characteristic hemoglobinized (red) colonies. Two distinct but related erythroid progenitors can be distinguished based on colony size and morphology: BFU-E, the most primitive recognizable erythroid progenitor forms large multilobular colonies whereas the more mature CFU-E forms smaller spherical colonies.
(§2) Adult hemoglobin was purified according to U.S Pat. Nos. 5,439,591 and 5,545,328 to obtain HAo and HEMOLINK™ was prepared from HAo according to U.S. Pat. No. 5,532,352. Human umbilical cord blood intended for discard was collected from the umbilical vein of placentas immediately postpartum into 10 ml vacutainer tubes containing 143 USP units/ml sodium heparin. Low density mononuclear cells were separated from red blood cells by centrifugation over a 1.077 g/ml density gradient Cells removed from the plasma/density gradient interface were incubated overnight in a tissue culture flask with 10 ml cell culture medium containing 10% fetal bovine serum, and non-adherent LDMNC were further purified with an additional density gradient step. The LDMNC were then plated into colony formation assays (CFA) on the second day of isolation. In the CFA, LDMNC were plated at a density of 1×10^5 cells/ml in Iscoves modified Dulbeccos cell culture medium containing 0.8% methyl-cellulose, 30% fetal bovine serum, 1% bovine serum albumin, 0.1 mM 2-mercaptoethanol and 2 mM L-glutamine. Unless indicated otherwise, under standard CFA conditions 2 U/ml Epo and 10 ng/ml IL-3 are added to the formulation to stimulate hematopoietic progenitor growth, specifically BFU-E, CFU-E and CFU-GM.
(§3) Each condition was tested in duplicate in from 2-18 independent experiments. Cultures were maintained in a humidified incubator at 37° C., 5% CO2 and ambient oxygen tensions. The number of hematopoietic progenitors was scored between days 13-15 by counting the number and types of colonies present.
(§4) The effect of the various additives on the inhibitory effect of succinylacetone (SA), a heme synthesis inhibitor, on erythroid progenitors was determined. Primary LDMNC were cultured in methyl cellulose as described in Example 1. Cord blood LDMN were plated in the presence of 1.0 mg/ml HAo (15.6 μM; n=12) or HEMOLINK™ (15.6 μM; n=5), 100 μM hemin (n=12), 250 μM FeCl3 (n=11) or no addition (n=12), in absence or presence of 0.5 mM SA. Cultures were maintained in a humidified chamber at 37° C., 5% CO2, and ambient oxygen tensions for 14 days.
HEMOLINK™ was evaluated for its ability to protect erythroid progenitor cells from toxicity due to ganciclovir. Cord blood LDMNC were set up in CFAs in the presence and absence of 1 mg/ml HEMOLINK™ plus 0, 0.1, 1.0, 10, 50 or 100 μM ganciclovir. Conditions for the CFA were similar to those described in Examples 1-4. […] All data are expressed relative to the number of colonies of control plates without HEMOLINK™. The hematopoietic progenitors display different sensitivities to ganciclovir. CFU-E were unaffected by 1 μM ganciclovir. However, a similar inhibition of BFU-E occurs at a 50-fold lower dose of ganciclovir (1 μM). […] Due to the difficulty in scoring CFU-GM in the presence of hemoglobin precipitates, as previously noted, they could not be accurately measured under these conditions. Thus, HEMOLINK™ reduces toxicity of ganciclovir to erythroid progenitors with the most pronounced effect on BFU-E cells.

[1] = tested on: total erythroid progenitors (BFU-E+CFU-E); experiment: Inhibition of succinylacetone (SA) toxicity to erythroid progenitors in CFA; type: cell-based, human; conditions: 0.5 mM SA only, no other addition
Experimental: as §4
Results are expressed as the number of total erythroid progenitors (BFU-E+CFU-E) present on plates treated with the various additives in the presence of SA relative to the number present on untreated plates (no SA or other addition). Significant differences in the presence of the respective additives compared to no addition (SA only; relative progenitor number=0.31) are as indicated: *p<0.001, **p<0.0001. Significant differences in the presence of the respective additives compared to no treatment (no SA; solid line at relative erythroid progenitor number=1.0) are as indicated: +p<0.05, ++p<0.001.

BFU-E = experiment: Colony formation assay (CFA), cord blood LDMNC: BFU-E colonies; type: cell-based, human; conditions: 0.1-100 μM ganciclovir, absence of HEMOLINK
Experimental: as §1, §2, §3
(§5) Erythroid progenitor colony formation assays were conducted as described in Example 1 except that cultures were incubated at either ambient oxygen tensions (˜20% O2) or 5% O2. The reduced oxygen tension of 5% O2 approximates the physiological intravascular oxygen tension in mammals. The mean fold increase in cord blood BFU-E, CFU-E and CFU-GM progenitor number at 5% O2 produced by 1.0 mg/ml HAo (15.6 μM; n=11) or HEMOLINK™ (15.6 μM; n=6), 100 μM hemin (n=10), 250 μM FeCl3 (n=6) or no addition (n=17-18), is shown FIG. 2. Results are expressed relative to control cells treated only with respective vehicles and cultured at ambient oxygen tensions (˜20% O2; fold expansion=1.0; *p<0.05, **p<0.01).
(§6) Erythroid progenitor colony formation assays were conducted as described in Example 1 except that cultures were initiated in the presence of Epo concentrations ranging from 0-2 U/ml. The mean fold increase in cord blood BFU-E, CFU-E and CFU-GM progenitor number produced by 1.0 mg/ml HAo (15.6 μM; n=9) or HEMOLINK™ (15.6 μM; n=6), 100 μM hemin (n=8), 250 μM FeCl3 (n=6), or no addition (n=9-10) in the presence of reduced Epo concentrations (0.2 U/ml) is shown in FIG. 3. Cultures were maintained at ambient oxygen tensions (˜20% O2) for 14 days. Results are expressed relative to control cells at 2 U/ml Epo treated only with the respective vehicles (solid line at fold expansion=1.0; *p<0.05, **p<0 01). Erythroid progenitor colonies were undetectable in the absence of Epo. […]

CFU-E = experiment: Colony formation assay (CFA), cord blood LDMNC: CFU-E colonies; type: cell-based, human; conditions: absence of HEMOLINK
Experimental: as §1, §2, §3, §5, §6

[2] = Half-life and blood level of Epo versus HEMOLINK after single i.v. administration; type: in vivo; conditions: single i.v. 225 U/kg
Text: Another strategy for the co-administration of Epo and hemoglobin is to reduce the number of Epo administrations required during therapy. Several Epo therapies follow the regimen of three weekly injections, either intravenously or subcutaneously. Multiple low dose or single high dose injections of Epo are required due to its relatively short half-life in vivo. […] HEMOLINK™ has a longer half-life. […] Longer half-life of the cross-linked hemoglobin can therefore compensate for Epo which may decline at a much faster rate. Thus, hemoglobin co-administered with Epo could prolong the effectiveness of Epo and therefore this combination therapy can be used to reduce the required frequency of Epo administrations.

[3] = cited from earlier work

Molecule: CC(=O)CC(=O)CCC(=O)O [SA, Succinylacetone]
effect of SA on CFU-GM proliferation (CFU-GM; 0.5 mM SA): did not inhibit CFU-GM proliferation
relative erythroid progenitor number (BFU-E+CFU-E) vs untreated plates [1]: 0.31

dose at which CFU-GM are completely inhibited (CFU-GM; human, 14 days): greater than 10 μM
inhibition of BFU-E by ganciclovir (BFU-E): dose-dependent inhibition
effect on CFU-E at 1 μM ganciclovir (CFU-E; 1 μM ganciclovir): unaffected
inhibition of CFU-E by ganciclovir (CFU-E; 0.1-100 μM ganciclovir): dose-dependent inhibition
Molecule: Nc1nc(O)c2ncn(COC(CO)CO)c2n1 [ganciclovir]

Molecule: Epo: recombinant human Epo; hormone that stimulates erythroid progenitors
Epo level ([2]; 0 hours post administration, assuming 85 ml/kg): 2.7 U/ml
Epo level ([2]; 21 hours post administration): 0.33 U/ml
Epo level ([2]; 42 hours post administration): 0.041 U/ml
Epo level ([2]; 63 hours post administration): 0.0052 U/ml
Epo level ([2]; 84 hours post administration): 0.00065 U/ml
half-life in plasma ([3]; after a subcutaneous injection): 11.2 to 21.1 h
half-life in plasma ([3]; after an intravenous injection): 5.6 to 8.8 h
fraction of subcutaneous dose absorbed into the bloodstream ([3]; subcutaneous): 21.5-46.6%
